The values below come from the supplement of paper PMC12042874.

± gives the uncertainty stated by the source.

The nature of this data set: amyloid nucleation score (Sup35N fusion, yeast selection) (log enrichment); library NNK1; higher = more nucleation; inactive = no reads after selection. In outline:
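Nucleation score is defined as the DiMSum log enrichment of output over input reads, with centring on the mode score of non-aggregating sequences. A minimum of 100 input reads was required for each sequence. Reads came from Illumina sequencing of plasmid inserts from psi-negative yeast expressing Sup35N fused to peptides of 20 random codons, induced with 100 μM copper sulfate for 24 hours and grown 7 days at 30°C on medium lacking adenine and uracil.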

Substance AFCRCNNRKVEQLMNLCGVF displayed an amyloid nucleation score of -0.771 ± 0.49.

LKLLFVTLKMLASMFFRGS yielded an amyloid nucleation score of -1.28 ± 0.77.

For the substance FTGCGLSPMGT, the amyloid nucleation score was 1.05 ± 0.73.

ISSILFLQCLSWGGNR came in with an amyloid nucleation score of 5.38 ± 0.095.

In turn, SGKSNSKPALEYYVSFFIDL came in with an amyloid nucleation score of -0.52 ± 0.55.

Turning to SIGCIYRSSKSGDVSISY, the amyloid nucleation score was -0.057 ± 0.37.

Consider IVTRWY, for which the amyloid nucleation score is -0.257 ± 0.21.

For the substance IKSVMDWSSCTEL, the amyloid nucleation score is -0.144 ± 0.33.

For AHLEGYYHWHYSEFWSVVVK, the amyloid nucleation score was -0.437 ± 0.31.

In turn, LVCVGTGSGMFEHRAIMMLV showed an amyloid nucleation score of -0.174 ± 0.51.

In turn, YSCPNLIWA registered an amyloid nucleation score of -0.424 ± 0.38.

As to ATPMFNVPVHRCVKKV, the amyloid nucleation score is -0.206 ± 0.46.

For PPWPVNSDDPGHYETSSNFS, the amyloid nucleation score came to 1.29 ± 0.73.

In turn, YGRGESMLHAGGNWEWTGQE gave an amyloid nucleation score of 0.09 ± 1.1.

For the substance LRIPFTSWRYDNEMAVTGSG, the amyloid nucleation score was found to be 0.394 ± 0.84.

For the substance LLCDWDGQ, the amyloid nucleation score worked out at 0.497 ± 0.43.

As for PTTEWKVVRT, the amyloid nucleation score is 0.808 ± 0.57.

IGYEGYPYASYGCRLLEQDA displayed an amyloid nucleation score of 0.168 ± 0.32.

As for LRTDALFY, the amyloid nucleation score stood at 0.577 ± 0.69.

In turn, LYYNASTAIELNLEYSIKWL showed an amyloid nucleation score of 0.17 ± 0.8.

Substance LDSAYSGGKCYTWFNIRRFV showed an amyloid nucleation score of 0.361 ± 0.86.

For the substance VYRRIYNFECWSSKCMLGYP, the amyloid nucleation score was -0.129 ± 1.6.

For the substance RFVLVMYMESLKMHCSLTYT, the amyloid nucleation score is -0.381 ± 0.27.

Regarding RLMRHNMPTVVEHAGSSRSN, the amyloid nucleation score is -0.132 ± 0.31.

As to GIGFFRCCLYRMFRYTRLSH, the amyloid nucleation score was 0.365 ± 0.23.

As for EYSVYDRYRPGNCCRTSRMD, the amyloid nucleation score is 0.251 ± 0.31.

As for VFHSMC, the amyloid nucleation score came out at 0.761 ± 0.39.

On to CHVIIVQRYFMSVTLSQCWW, for which the amyloid nucleation score is 0.489 ± 0.24.

For the substance VSDYFG, the amyloid nucleation score came out at 0.229 ± 0.87.

Take VGNMRYL: the amyloid nucleation score was -0.332 ± 0.5.

In turn, NPGIDYNERYWMG gave an amyloid nucleation score of -1.09 ± 1.1.

For RSIRC, the amyloid nucleation score was -0.615 ± 1.1.

In turn, KSYSMMMSMMGNRMWVKRLV had an amyloid nucleation score of -0.02 ± 0.5.

FGFTGLTSW: the amyloid nucleation score was -0.146 ± 1.4.

PALNRFLGTERDYDRYAGIA registered an amyloid nucleation score of -0.8 ± 0.49.

As for LEWGQPHPCSGFRKCWYSDV, the amyloid nucleation score was 0.136 ± 0.58.

For YGEHWSS, the amyloid nucleation score amounted to 0.645 ± 1.2.

The substance WLNSEAWDYLATLGLSFNYS had an amyloid nucleation score of 0.761 ± 0.75.

TLSLNYRFNLKERFLVSGLI returned an amyloid nucleation score of -0.733 ± 0.38.

NLALLEYVINSVSTMFYISN returned an amyloid nucleation score of 0.276 ± 0.24.

For NSNARAGVLDLPSCRTVVIE, the amyloid nucleation score was 0.68 ± 0.65.

The substance IYCEEFMLEMTSRIRV showed an amyloid nucleation score of -0.976 ± 0.47.

The substance CDSYSKMPPGRNILVCQFCW gave an amyloid nucleation score of 2.15 ± 0.11.

The substance IMMHSGPRKVPGSFGQTVHD displayed an amyloid nucleation score of 0.019 ± 0.68.

ILHYWVAVSMAQWICIGLKK displayed an amyloid nucleation score of 0.194 ± 0.45.

In the case of GAYYGRSSKELGNNEGTGTG, the amyloid nucleation score amounted to 0.51 ± 0.52.

With GAIFYGVCCIRPNWNVVSTS, the amyloid nucleation score stood at 5.69 ± 0.059.

As for RVIGPTHYLQLCNIMFCDYI, the amyloid nucleation score turned out to be 7.206 ± 0.051.

Turning to FVVSDIMGDLRKM, the amyloid nucleation score was 1.38 ± 0.71.

The substance RSARIKNWSSLYLWMINSCV had an amyloid nucleation score of 0.469 ± 0.32.

NVNWKWVGNTLVVSIMVEAN: the amyloid nucleation score result is “inactive”.

With KYWGS, the amyloid nucleation score entry was “inactive”.

RFCGVMESERTVIRKCREVG gave an amyloid nucleation score of 0.095 ± 0.42.

The substance DTRTSNNPALFRGFTALRVR showed an amyloid nucleation score of 0.412 ± 0.54.

For the substance DSRRGYPMMSMMWW, the amyloid nucleation score was -0.354 ± 0.39.

Take KKFFRVLLSLSSMLVLCCFQ: the amyloid nucleation score is -0.317 ± 1.4.

In turn, RVFKFSPYILKAILEVSNA had an amyloid nucleation score of 0.458 ± 0.32.

In the case of HLVDFMDE, the amyloid nucleation score worked out at 0.105 ± 0.3.

For the substance NTESLEFRSKKGGNCRAGLS, the amyloid nucleation score came to 0.495 ± 0.97.

With ARLSL, the amyloid nucleation score worked out at 0.157 ± 0.64.

Consider CVFGYCVALHF, for which the amyloid nucleation score was determined as 6.18 ± 0.073.

Substance ALCYWNSTVD registered an amyloid nucleation score of -0.057 ± 0.41.

The substance GNNGVEKPKNHISGELFGTN registered an amyloid nucleation score of -0.138 ± 0.35.

For the substance FDHSG, the amyloid nucleation score result is “inactive”.

FWATRVTWLDEMLIYYCLVN: the amyloid nucleation score is 0.155 ± 0.36.

As to GYRTLLS, the amyloid nucleation score was 0.372 ± 1.4.

DRLMFRYSIRRIRFVSESSP had an amyloid nucleation score of 1.41 ± 0.43.

Take FCRGKPRRLVP: the amyloid nucleation score is -0.219 ± 0.67.

The substance APSTDGMNMPTNGDRTPTLW yielded an amyloid nucleation score of 0.245 ± 0.42.

Regarding DLYKSVPKHNQSNMSDSTES, the amyloid nucleation score was -0.631 ± 0.6.

For the substance RCLMPYNYE, the amyloid nucleation score was 0.952 ± 0.49.

As for PFAGNHTMWKVPTWGKSWKG, the amyloid nucleation score was -0.398 ± 0.7.

Take DPVTDVFG: the amyloid nucleation score is -0.541 ± 0.36.

CWTSFYDC showed an amyloid nucleation score of 0.448 ± 0.49.

AGHYLCGSITNLTA: the amyloid nucleation score was found to be 0.721 ± 0.97.

With VYCSLPRFRHLTSSILVTII, the amyloid nucleation score was -0.07 ± 1.4.

With AVVAIYSQILRNGSVLSWFP, the amyloid nucleation score came out at 0.242 ± 0.51.

NNTDYLNCYTAICSSNTVAG: the amyloid nucleation score result was “inactive”.

For LSGTTLIPEYILRSSNPSI, the amyloid nucleation score amounted to 0.147 ± 1.6.

For the substance ANSVIFDGRSKGLAKHTVSY, the amyloid nucleation score is -0.276 ± 0.65.

With FAVSRVEMNLGL, the amyloid nucleation score is -0.117 ± 0.34.

Take WARESRIHTYVRVMFSGKWG: the amyloid nucleation score was 0.517 ± 0.54.

As for MWSLDGTKICNLRKVFGRSC, the amyloid nucleation score came to 0.809 ± 0.37.

Substance TNTLLTPGCGINAIGVALYV showed an amyloid nucleation score of -0.628 ± 0.3.

CTVKLLMCQAISLTCSLGFF registered an amyloid nucleation score of 0.534 ± 0.56.

HLGNSSNQIILHQCI yielded an amyloid nucleation score of 4.67 ± 0.059.

PWCSKQEGTRMWGMYGAPGG showed an amyloid nucleation score of 0.162 ± 0.62.

VACRRTSKGEYYFQSMICDL: the amyloid nucleation score entry is “inactive”.

As to VLTFPLFCIGKLIKN, the amyloid nucleation score is 6.033 ± 0.045.

In turn, KAFIQTVLRNQVSWLANTPH registered an amyloid nucleation score of -0.745 ± 0.98.

Turning to TAGATI, the amyloid nucleation score was 0.108 ± 0.25.

Consider LRYVKSHSTMAFKLGATPGT, for which the amyloid nucleation score is 0.505 ± 0.66.

Take NTKSTPNTSVLFSLTTRI: the amyloid nucleation score was determined as 1.3 ± 0.15.

Turning to SNPYVWDVPLSRLWFVSWEL, the amyloid nucleation score came to 0.068 ± 0.65.

Take ICYSGHERYWLNLGICEGDS: the amyloid nucleation score was found to be 0.186 ± 0.32.

NCMAISGITVLNMSWNNLKI yielded an amyloid nucleation score of 6.612 ± 0.064.

In turn, RTLHRLLSSINAKGDRYRLR showed an amyloid nucleation score of -0.935 ± 1.9.

LQEVSWYSTVALTLSNLKWG registered an amyloid nucleation score of -0.389 ± 0.46.

In the case of NVRSFWFSGNQSNIGGICWG, the amyloid nucleation score was determined as 0.204 ± 0.43.

On to SFVLGYSFLRKSCWFNVVTL, for which the amyloid nucleation score result is “inactive”.

GVWYCYLGVN returned an amyloid nucleation score of -0.431 ± 1.4.

PIDGLPGASFGLGFQCGVGM came in with an amyloid nucleation score of 0.527 ± 0.76.

TLMDQSLYIWGSN returned an amyloid nucleation score of -0.274 ± 0.63.

Take EFTGDRQSYFCLQYSCTSLR: the amyloid nucleation score was -0.096 ± 1.7.
